The supplement of paper PMC9170038

Tested on: K4 kissing-loop RNA reporter
Assay: apparent KD of K4 kissing-loop reporter; higher = weaker reporter binding
Settings: Eterna round: R107
Description: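 RNA-MaP round R107: designed RNA switches with theophylline, tryptophan, arginine or FMN aptamers are transcribed on-chip within common flanks. They are titrated with a labelled K4 kissing-loop RNA reporter in RNA-MaP buffer (100 mM Tris pH 7.5, 80 mM KCl, 4 mM MgCl2), without ligand or with the indicated ligand. Median apparent KD per design.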

[1] = input ligand: theophylline 20 uM
[2] = input ligand: tryptophan 2.4 mM
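Note: bound reporter read as fluorescence of individual clusters on recovered sequencing chips by microscopy, with normalized cluster intensities fitted with a binding model.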

Sequence | apparent KD of K4 kissing-loop reporter (input ligand: FMN 200 uM) [nM] | apparent KD of K4 kissing-loop reporter (input ligand: arginine 13.2 mM) [nM] | apparent KD of K4 kissing-loop reporter (input ligand: none) [nM] | apparent KD of K4 kissing-loop reporter [1] [nM] | apparent KD of K4 kissing-loop reporter [2] [nM]
UGGGUUGGAAGUGAUGUUUCUCUAAGUGAUACCAGACAAAAGAAAGUCCCUUGGCAGCACAAUGAUGCCAAGGAAACGGCAUGAU [#16 K4 Theophylline A Same State] | 229 | 244 | 260 | 250 | 195
UGUAAGCGCGUAGAUACCAGCAGACGAGUGAUGUUCGAGAGAUUAAGGAAAAGAAAGUAAUGCCCUUGGCAGCUAAUCAUAAGCG [whbob_Ex_Theo_B_sa94] | 248 | 335 | 264 | 301 | 174
UGUACCGAGUCAGGAUAUAGCGUCGAAAGACGAAUCCUAGUGAUGUUAGGGAUCUGCGAAAGCAGUCUAGAAGGGACUUGGUACU [FmnBS 26 A19+U68] | 275 | 278 | 295 | 293 | 291
UGUAUGUGAUUUGAUACCAGACCAGCUGGUGGUAUAUGAGUGAUGUUCAUGUUGGUGUGGGUCCCUUGGCAGCAAAUCGCAUACU [KL-SSTheoB9] | 242 | 161 | 237 | 164 | 183
UGUAUGUGAUUUGAUACCAGACCAGCUGGUGUUAGAUGAGUGAUGUUGAUCUAGGGUUGGGUCCCUUGGCAGCAAAUCGCAUACU [KL-SSTheoB22] | 593 | 391 | 557 | 435 | 463
UGUAUGUGAUUUGAUACCAGACCAUCUUGUGAGAAGUGAGUGAUGUUUAUUUUGGUUUGGGUCCCUUGGCAGCAAAUCGCAUACU [KL-SSTheoB23] | 777 | 560 | 826 | 619 | 738
UGUCAUUGGUCGGCCGCCACUAAAUAAAAGAGUGAUGUUCUUAAGACGGAUCGAAAGAUCUGUCAUAGGACCGGGACCGAUGACU [TrypBS 21 #SwitchBubble #StaticStem] | 1200 | 891 | 1080 | 888 | 667
UGUCAUUGGUCGGCCGCCACUAGGACCGGGUAUAACCUAGUGAUGUUAGUGAGUACGGCCGCCACUAGGACCGGGACCGAUGACU [KL-SSTryp-B120 #DoubleAptamer] | 531 | 319 | 857 | 572 | 91.9
UGUCAUUGGUCGGCCGCCACUCCAUAACGAGUGAUGUUCUAAAAGACGGAUCGAAAGAUCUGUCGGAGGACCGGGACCGAUGACU [FiskerMod 6 - Jieux - Same State - Tryptophan B] | 558 | 308 | 622 | 274 | 1140
UGUCAUUGGUCGGCCGCCACUUCAUAUAGAGUGAUGUUCUGAAAGACGGAUCGAAAGAUCUGUCGAAGGACCGGGACCGAUGACU [FiskerMod 12 - Jieux - Same State - Tryptophan B] | 1100 | 810 | 1640 | 1100 | 268
UGUCAUUGGUCUGAUACCAGAAGAAAUCUGGAGUGAUGUUCCAAGUCGACAAAAUGUCGCUUCCCUUGGCAGCAGACCGAUGACU [TheoBS 23 #SwitchBubble 13 #StaticStem] | 393 | 331 | 377 | 222 | 349
UGUCAUUGGUCUGAUACCAGUACCCUUGGCAGCCAAGGAGUGAUGUUCCAAGGAUACCAGUGCCCUUGGCAGCAGACCGAUGACU [TheoBS 12 #DoubleAptamer #SwitchBubble] | 920 | 563 | 1120 | 613 | 901
UGUCAUUGGUCUGAUACCAGUUAGACCGAUAGGUCAAAACUGGAGUGAUGUUCCCAAAAUAACCCUUGGCAGCAGACCGAUGACU [TheoBS 3 #SwitchBubble #StaticStem] | 280 | 149 | 152 | 282 | 191
UGUGAGCUGUCGACAAAAGUCGACUAAAAUGAGGAUAUGACGAAAGUCAGAAGGCAUCAAUAAUGGAGUGAUGUUCCUGCUCACU [FmnA 9 U30+A56] | 373 | 432 | 809 | 790 | 763
UGUGAUGAGUAGAGUGAUGUUUUGAAGGAUACCAGAGUGUUGUUAUUCCCUUGGCAGCUUGAGUGAUGUUUGAUGUUGUUGUUGU [rcrrmullin] | 328 | 221 | 253 | 205 | 211
UGUGAUGUUGUGAUGUUUAGUGUUGUUGGGCAGGAUAUUGUAGAGGCGAGAAGGGCUAGUGUGAUGUAUGAGUGAUGUUUGUAGU [kkollmullin] | 127 | 111 | 246 | 177 | 186
UGUGGAGAAUAUGAUACCAGCAGUGAGAGAGAGGAAGUAUAGUGAUGUUAUAUGAGAGAAUGCCCUUGGCAGCAUAUGAAGAAGG [SSTheophylB.E] | 174 | 120 | 148 | 138 | 115
UGUGUUUACCUGACUCAGUGAUGUUGAGAAGGAGCGUGGGAAACCACAGGUAGGUCGCUCAACCUAAAUUCAGGUGAGCACUAAA | 327 | 219 | 399 | 303 | 231
UUAAUAAUUCAAGGAUAUGUUUUCUAUUUCGAGUGAUGUUCGGAAUUAAUAAAUUUAAAAGAUUAUACAGAAGGUGAUAAAUAGU [Cynwulf-mod#2] | 87.1 | 92.8 | 85.9 | 115 | 81.1
UUAGAGAUCUCAGGAUAUCAGUGAUGUUGUAAUCCAGAUCUGAGAUAGAAUUCUAUCUCAGAUCAAUGAGAAGGGAGAUCUCAUU [AK4.2 Exc FMN B] | 306 | 601 | 723 | 576 | 591
UUAGUGACAAGUCAGAUUCUGACAAUUGAUACCAGAUAGAAUUCUAUCCCUUGGCAGCAGUGAUGUUGUUGCAAAUAGUCACAUU [AK3 Exc Theophylline A] | 263 | 209 | 251 | 242 | 232
UUAUAACCCAGUGAUGUUGGGUAGCGGCCACGAGGACCGGUACGGCCGCCACUCGAGGUUUGACCAGUGAUGUUGGACUAUUUGG [Same state Tryptophan A GF 5] | 163 | 134 | 156 | 147 | 47.1

Sequence | apparent KD of K4 kissing-loop reporter (input ligand: FMN 200 uM) [nM] | apparent KD of K4 kissing-loop reporter (input ligand: arginine 13.2 mM) [nM] | apparent KD of K4 kissing-loop reporter (input ligand: none) [nM] | apparent KD of K4 kissing-loop reporter [1] [nM] | apparent KD of K4 kissing-loop reporter [2] [nM]
UUAUAUUUUAUAUUUAGAUGAUCUAUAGCACGAGGACCGGUACGGCCGCCACUCGAGUGAUGUUCGAGAGCUAUAGAUCAUCAUU [AK2.2 EXC Tryptophan A] | 142 | 132 | 148 | 121 | 207
UUAUAUUUUAUAUUUAGUAGAGCUCUAGCUCGAGGACCGGUACGGCCGCCACUCGAGUGAUGUUCGAGUGGGUGAGCUCUACAUU [AK3 EXC Tryptophan A] | 124 | 95.7 | 103 | 101 | 363
UUAUCACCCUAAGGAUAUAGCUAAGUGAUGUUUAGCUCGUCGCAGGGUAAACACUAGGCCCAAAGGCUAGAAGGUAGCUGGUACC [theeternabot_exclusion_KL_FMN_B_35] | 70.6 | 66.9 | 74 | 81.3 | 69.6
UUAUUAAUCGCAGAUACCAGUCCAGAAUGAAUACUAUAGUGAUGUUAUAAUAAAGGGAAGGACCCUUGGCAGCUGUAAUAUAUUU [AstrosSsTheB#3] | 371 | 278 | 401 | 240 | 280
UUAUUAUAUUGUAAUGAUAUAGAAACCGAAGGAGCGACAUAAAAGUCAGGUAGGUCGCGGUGUACUCAGUGAUGUUGAGAGUAUU [JR_SSArginiA_Sub013] | 141 | 265 | 172 | 271 | 100
UUCUAACACACCGAUACCAGAGCCCAGUGAUGUUGGGCCUAGGUCGGAUGCUCACUGACGCUCCCUUGGCAGCGGUGGGCUAACC [Arreisve] | 127 | 112 | 116 | 110 | 114
UUCUACGUGCAAGGAUAUCCAUACGCUGCUAAGCGGGUAGCGAUAUAUGGAGUGAUGUUCCAUGUAGGAGAAGGUGCACUGUCCU [Rieser] | 144 | 295 | 348 | 253 | 242
UUCUCUCAGGCACGCGAGUGAUGUUCGCGGCGAGGACCGGUACGGCCGCCACUCGCGCCUGAGAGAGGUUAUCAAAGAUAGCCUU [whbob_SS_tryp_A] | 163 | 92.3 | 94.7 | 186 | 208
UUCUUGAUGGAAACAUCGAGGAUCACUGAUACCAGUAUCGAUAGAUACCCUUGGCAGCAGUGUCGGUGGUCACGAGUGAUGUUCG [Ex Theophylline A K4 12] | 718 | 731 | 811 | 719 | 787
UUCUUGAUGGAAACAUCGAGGAUUACUGAUACCAGUAUCGAUAGAUACCCUUGGCAGCAGUAUCGGUGAUCACGAGUGAUGUUCG [Ex Theophylline A K4 11] | 669 | 576 | 785 | 757 | 607
UUUAAAUAUAGUGAUGUUAUAUAACAAUGACGAGGACCGGUACGGCCGCCACUCGAGAGAGAUAAUGGUCUUACAAAUGUAAGUU [AstrosSSTryA#9] | 567 | 646 | 793 | 822 | 481
UUUAGGAACUGAGGAUAUUCGAAGAAAUAUAGUGAUGUUAUAUAAGGAGGAGGAGGGAGGGAGGAAGGAGAAGGCAGAAGAGGAG [ExFMNB.E] | 368 | 243 | 246 | 330 | 248
UUUAUAAAGUCGGCCGCCACUGGAUUUAUAUUUGUUUAAUCUGGAUCAAAGUGAUGUUUUGAGUCCAGGACCGGGACAUUUGUUA [JR_ExcTryptoB_Sub002] | 125 | 123 | 124 | 135 | 232
UUUCGUUGAAGUGAUACCAGACUUGAAAGUGAUGUUUUCCAAUAAAUUAAAUUAUUAGCUGUCCCUUGGCAGCACAGUUUAUUUA [JR_ExcTheophyB_Sub006] | 205 | 345 | 301 | 389 | 186
UUUGGUUGUGGUGUUGAUUAGGGAGCGGAAGGAGCGCCGAGGAGGGCAGGUAGGUCGCCGGAAUGUAGUGAUGUUGCAUAGAGGU [ExArgA.Ad] | 325 | 277 | 198 | 603 | 341
UUUGUAUAGGGAAGGAGCGUGAAUGAUAAAGAAUAUAGUGAUGUUAUAUAGAAGAAAGAAUCACAGGUAGGUCGCCCGGAGGAGG [SSArgB.H] | 599 | 491 | 552 | 450 | 361
UUUUAAAUGUCUGAUACCAGAGAAAAUAUAUGUAGUGAUGUUAUAUACAAAUUAAAUAAGCUCCCUUGGCAGCAGUAUUAAUUUU [AstrosExc-TheB#10] | 628 | 694 | 758 | 761 | 518
UUUUAAUAAAAGGAUACCAGUACAAAUAAAGUACAUUAAUAGUAGAGUGAUGUUCUAAAGUACCCUUGGCAGCUUAGAGUAAGUU [#17 K4 Theophylline B Exclusion] | 120 | 253 | 160 | 228 | 85.1
UUUUAUUAAUUCUUCUAGUGAUGUUAGAUACGAGGACCGGUACGGCCGCCACUCGCUUAUUGGUUUAUAAAUUUUAUAUUAUUUA [JR_SSTryptoA_Sub016] | 292 | 296 | 286 | 294 | 249
UUUUGGUUCUGAGGAUAUUCGAAGAAAUAUAGUGAUGUUAUAUAAGGAGGAGGAUGGAGGGAGGAAGGAGAAGGCAGAAGAGGAG [ExFMNB.I] | 890 | 492 | 700 | 923 | 417
UUUUUAAUCGCAGAUACCAGUCCAGAAUGAAUACUAUAGUGAUGUUAUAAUAAAGGGAAGGACCCUUGGCAGCUGUACUAUAUUU [AstrosSsTheB#6] | 412 | 308 | 398 | 300 | 299
